The source of these data is patent publication US20210047395A1 (Hoffmann-La Roche, published 2021).

Assay [1] addresses T1, VEGF-121-His (inhouse production) (human, UniProt P15692 207-395).
T1 construct: Treated as one molecule; also called hVEGF-A121; not shown: His tag
T1 sequence: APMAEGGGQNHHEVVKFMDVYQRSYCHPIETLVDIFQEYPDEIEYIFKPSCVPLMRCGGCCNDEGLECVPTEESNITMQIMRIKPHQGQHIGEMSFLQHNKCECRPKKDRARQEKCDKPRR
Kind of assay: VEGF:VEGF-R1 inhibition ELISA (Example 4, as Example 2): 0.34 nM VEGF-121-His pre-incubated with the Fab, then added to plate-bound biotinylated VEGF-R1, anti-His POD detection; blocked partner: VEGF-R1. A general note: ELISA stands for enzyme-linked immunosorbent assay.

Assay [2] has as its target T1, VEGF-121-His (inhouse production). Kind of assay: SPR, hVEGF-A121 captured by anti-His antibody, 37 C. How it is done: (§1) An anti-His capturing antibody (GE Healthcare 28995056) was immobilized to a Series S Sensor Chip C1 (GE Healthcare 29104990) using standard amine coupling chemistry resulting in a surface densitiy of 500-1000 resonance units (RU). […] The surface was regenerated by injecting 10 mM Glycine pH 1.5 for 60 s. […] Rate constants were calculated using the Langmuir 1:1 binding model within the Biacore Evaluation software.
(§2) The affinity of the antibodies was determined by SPR using the same methods as described in Example 2.

For assay [3] the target is unchanged. The assay can be described thus: SPR, hVEGF-A121 captured by anti-His antibody, 25 C. The method, then:
as §1, §2
A general note: Surface plasmon resonance follows binding to a sensor surface in real time, without labels.

The target in assay [4] is T2, VEGF (as used in the Biacore active concentration test of Example 6) (Homo sapiens (Human), UniProt P15692 27-147, VEGF is a disulfide-linked homodimer; one protomer is given).
T2 sequence: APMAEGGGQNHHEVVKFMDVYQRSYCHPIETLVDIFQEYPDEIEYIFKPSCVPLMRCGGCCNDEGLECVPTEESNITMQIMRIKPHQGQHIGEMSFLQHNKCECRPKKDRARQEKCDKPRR
Kind of assay: Biacore, normalized to unstressed aliquot; Fab stressed 2 w/37 C/pH 7.4. The method, then:
(§3) Antibody samples were formulated in 20 mM His/HisCl, 140 mM NaCl, pH 6.0, and were split into three aliquots: one aliquot was re-buffered into PBS, respectively, and two aliquots were kept in the original formulation. The PBS aliquot and one His/HisC1 aliquot were incubated for 2 weeks (2 w) at 40° C. (His/NaCl) or 37° C. (PBS) in 1 mg/ml, the PBS sample was incubated further for total 4 weeks (4 w). The third control aliquot sample was stored at −80° C.

In assay [5] the target is T2, VEGF (as used in the Biacore active …). The assay can be described thus: Biacore, normalized to unstressed aliquot; Fab stressed 2 w/40 C/pH 6.0. How it is done:
as §3

For assay [6] the target is unchanged. Kind of assay: Biacore, normalized to unstressed aliquot; Fab stressed 4 w/37 C/pH 7.4. The method, then: as §3
For assay [7], the target named is T1, VEGF-121-His (inhouse production). Kind of assay: VEGF:VEGF-R1 inhibition ELISA (Example 4, as Example 2): 0.7 nM VEGF-121-His pre-incubated with the Fab, then added to plate-bound biotinylated VEGF-R1, anti-His POD detection; blocked partner: VEGF-R1. How it is done: Plates were incubated for 1 h at room temperature. […] Plates were incubated for 1 h at room temperature. […] After washing 3 times with 90 μl/well PBST-buffer, 25 μl/well detection antibody (anti His POD, Bethyl, #A190-114P, 1:12000) in 1×OSEP was added. After incubation for 1 h at room temperature plates were washed 3 times with 90 μl PBST-buffer. 25 μl TMB (Roche, #11 835 033 001) was added to all wells simultaneously. After 10 min incubation at room temperature, signals were detected at 370 nm/492 nm on a Tecan Safire 2 Reader.

B1: VEGF-P1AD8674 Fab (Fab, V domains shown)
VH: EVQLVESGGGLVQPGGSLRLSCAASGFTFTNYAMTWVRQAPGKGLEWVSSIGNGGGIYTYYADSVKGRFTISRNNAENTLYLQMNSLRAEDTAVYYCAKGDNLFDSWGPGTLVTVSS
VL: DIQMTQSPASLSASVGDRVTITCRASQSIYSSLNWYQQKPGKAPKLLIYASTLQSGVPSRFSGSASGTDFTLTISSLQPEDVATYYCQQYQNFPRTFGQGTKLEIKR
In the case of B1, the binding result in assay [1] is “binds”.

B2: VEGF-P1AE3519 Fab (Fab, V domains shown)
VH: EVQLVESGGGLVQPGGSLRLSCAASGFTFTNYAMTWVRQAPGKGLEWVSSIGSGGGIYTYYADSVKGRFTISRDNWKNTLYLQMNSLRAEDTAVYYCAKGDNLFDSWGPGTLVTVSS
VL: DIQMTQSPASLSASVGDRVTITCRASQSIYSSLNWYQQKPGKAPKLLIYASTLQSGVPSRFSGSASGTDFTLTISSLQPEDVATYYCQQYQNFPRTFGQGTKLEIKR
notes: Control variant of VEGF-0089 with N52aS in H-CDR2 and S74W in H-FR3 (Kabat)
B2: the equilibrium dissociation constant (Kd) (as a rule, a measure of binding affinity in units of concentration) in assay [2] is 0.094 nM; in assay [3], 0.119 nM. The “VEGF-binding activity after stress (relative active concentration)” value in assay [4], in assay [5] and in assay [6] was 102 in each case.

B3: VEGF-0112 Fab (Fab, V domains shown)
VH: EVQLVESGGGLVQPGGSLRLSCAASGFTFTNYAMTWVRQAPGKGLEWVSSIGSGGGIYTYYADSVKGRFTISRDNSKNTLYLQMNSLRAEDTAVYYCAKGDNLFDSWGPGTLVTVSS
VL: DIQMTQSPASLSASVGDRVTITCRASQSIYSSLNWYQQKPGKAPKLLIYASTLQSGVPSRFSGSASGTDFTLTISSLQPEDVATYYCQQYQNFPRTFGQGTKLEIKR
As to B3, in assay [7], the binding result is on record as “binds”.
